The source of these data is US7223537B2, “Detection of molecular interactions by reporter subunit complementation” (The Board of Trustees of the Leland Stanford Junior …, priority 1997, dated 2007).

Experiment [1] relates to T1, human EGF receptor.
T1 construct: transmembrane domains of the human EGF receptor (amino acids 1–655) was amplified; expressed in transfected cells; host or cells: C2F3 mouse myoblasts, retrovirally transduced (pWZL-Δα-neo, pWZL-Δω-hygro), selected clone
The experiment can be described thus: EGF receptor dimerization monitored by β-gal complementation (FACS) in C2F3 mouse myoblasts expressing chimeric receptors. The format is cell-based. The text has this: (§1) Construction of chimeric receptors. The weakly complementing Δα and Δω deletion mutants of β-gal were each linked to a polypeptide sequence containing the extracellular and transmembrane domains of the human EGF receptor to form chimeric receptor molecules. The chimeric receptors lacked the cytoplasmic domain, and attendant tyrosine kinase activity, of the native receptor. The procedure was as follows. The sequence coding for the extracellular and transmembrane domains of the human EGF receptor (amino acids 1–655) was amplified by polymerase chain reaction (PCR) using primers that incorporated an NcoI site at the 5′ end and an XhoI site at the 3′ end of the PCR product. Although this fragment retains threonine 654, which is a site of protein kinase C (PKC) phosphorylation, arginines 656 and 657 are removed, destroying the consensus PKC recognition sequence. The amino acid sequence beginning with threonine 654 is thr-leu-glu-ser-met, with the met residue being the beginning of the β-gal sequence. The glu and ser codons are generated by the junction sequence and are not native to either EGF or β-gal.
(§2) DNAs encoding the chimeric receptors were inserted into a retroviral vector also encoding a selectable marker. For the construct containing the EGF receptor-Δα fusion, the selectable marker was the neo gene, encoding G418 resistance; while the EGF receptor-Δω fusion specified hygromycin resistance (FIG. 1B). Accordingly, the EGF receptor PCR product was digested and cloned into the NcoI and XhoI sites of the pWZL-Δα and pWZL-Δω vectors. The pWZL-Δα-neo and pWZL-Δω-hygro plasmids were constructed by cloning the lacZ Δα and Δω deletion mutants into pWZL-neo and pWZL-hygro, respectively. Mohler et al., supra; and Rossi et al. (1997) Proc. Natl. Acad. Sci. USA 94:8405–8410. Plasmids were transfected into φNX cells using Lipofectamine (Life Technologies), and virus-containing supernatant was harvested 48–72 hours later. C2F3 mouse myoblasts (Rastinejad et al. (1993) Cell 72:903–917) maintained in DME with 20% fetal bovine serum (FBS) in 10% CO2, were infected by overnight incubation in the viral supernatant. Cells containing both constructs were selected in 1 mg/ml G418 plus 1 mg/ml hygromycin, and were maintained in 400 μg/ml of each antibiotic.
(§3) EGF treatment and FACS analysis Cells were treated with mouse salivary gland EGF (Sigma) at 100 ng/ml and in some experiments were treated with tyrphostin AG1478 (Calbiochem) at 100 nM. Following all treatments, cells were rinsed with phosphate buffered saline (PBS), trypsinized, and resuspended in PBS+5% FBS. Fluorescein di-β-D-galactopyranoside (FDG; Molecular Probes) was loaded into the cells by hypotonic shock as described. Fiering et al. (1991) Cytometry 12:291–301 and Nolan et al. (1988) Proc. Natl. Acad. Sci. USA 85:2603–2607. Cells were kept on ice until analysis on the cell sorter, which was conducted 1 to 2 hours after trypsinization.
(§4) The chimeric receptor was detected by immunofluorescence using a monoclonal mouse anti-human EGF receptor antibody diluted 1:100 (clone EGFR1, Dako) and either phycoerythrin-labeled horse anti-mouse IgG (Vector) or fluorescein-labeled goat anti-mouse IgG (Cappel) diluted 1:100. Cells were trypsinized and stained in PBS+5% FBS. For each sample, FACS analysis data was collected for 5000 cells. Cells were cloned on a Becton-Dickinson FACS Vantage and analyzed on a Becton-Dickinson FACS can at the Stanford Shared FACS Facility. Data analysis was facilitated by FlowJo software (Tree Star, Inc.). Data shown here as FACS profiles were adjusted for autofluorescence using autofluorescence compensation. Alberti et al. (1987) Cytometry 8:114–119. Mean fluorescence data were adjusted for autofluorescence and for endogenous mammalian β-gal activity by subtracting the mean fluorescence of untransduced cells loaded with FDG substrate.

Experiment [2] addresses T2, human EGF receptor (Homo sapiens, UniProt P00533).
T2 construct: transmembrane domains of the human EGF receptor (amino acids 1–655) was amplified; expressed in transfected cells; host or cells: C2F3 mouse myoblasts, retrovirally transduced (pWZL-Δα-neo, pWZL-Δω-hygro), selected clone
The experiment is described as above. The format is cell-based.
Source text: as §1, §2, §3, §4

T1 sequence (Q01279 25-1210): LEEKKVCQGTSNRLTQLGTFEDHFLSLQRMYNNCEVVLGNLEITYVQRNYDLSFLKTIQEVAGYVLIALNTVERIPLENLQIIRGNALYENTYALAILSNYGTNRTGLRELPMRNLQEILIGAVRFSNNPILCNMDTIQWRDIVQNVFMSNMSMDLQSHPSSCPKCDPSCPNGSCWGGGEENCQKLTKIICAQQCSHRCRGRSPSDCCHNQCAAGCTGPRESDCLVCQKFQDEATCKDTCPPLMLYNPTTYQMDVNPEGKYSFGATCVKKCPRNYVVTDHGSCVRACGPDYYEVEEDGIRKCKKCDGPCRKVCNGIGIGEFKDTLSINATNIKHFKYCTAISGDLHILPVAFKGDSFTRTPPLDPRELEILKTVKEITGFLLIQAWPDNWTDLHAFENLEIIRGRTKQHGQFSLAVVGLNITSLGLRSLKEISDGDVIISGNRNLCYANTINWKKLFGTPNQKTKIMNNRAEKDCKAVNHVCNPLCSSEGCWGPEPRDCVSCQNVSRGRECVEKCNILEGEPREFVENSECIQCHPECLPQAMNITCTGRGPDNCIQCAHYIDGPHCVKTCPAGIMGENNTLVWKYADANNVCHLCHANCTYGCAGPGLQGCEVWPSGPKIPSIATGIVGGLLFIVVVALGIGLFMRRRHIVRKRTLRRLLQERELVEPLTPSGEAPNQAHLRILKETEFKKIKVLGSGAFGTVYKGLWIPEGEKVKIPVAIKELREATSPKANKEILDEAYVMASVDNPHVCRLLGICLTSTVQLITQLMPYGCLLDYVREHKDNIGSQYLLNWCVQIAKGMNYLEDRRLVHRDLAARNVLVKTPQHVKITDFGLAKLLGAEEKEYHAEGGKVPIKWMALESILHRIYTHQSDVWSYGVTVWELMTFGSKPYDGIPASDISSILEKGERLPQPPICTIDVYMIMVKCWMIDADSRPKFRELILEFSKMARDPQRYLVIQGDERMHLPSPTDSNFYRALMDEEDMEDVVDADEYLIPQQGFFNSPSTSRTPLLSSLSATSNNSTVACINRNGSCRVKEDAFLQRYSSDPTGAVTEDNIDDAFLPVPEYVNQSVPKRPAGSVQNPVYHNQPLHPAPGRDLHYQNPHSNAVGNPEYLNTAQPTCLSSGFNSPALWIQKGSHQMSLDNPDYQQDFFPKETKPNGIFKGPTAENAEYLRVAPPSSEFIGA

With `COc1cc2ncnc(Nc3cccc(Cl)c3)c2cc1OC` [tyrphostin AG1478, reference compound], in the experiment on human EGF receptor [1] (100 nM tyrphostin AG1478 + 100 ng/ml EGF, treatment times of up to 6 hours, FIG. 9B), the “β-gal activity of cells given tyrphostin and EGF versus EGF alone” value was “greater β-gal activity than cells that received EGF alone”. In addition, the “difference in EGF receptor dimerization between EGF and EGF+tyrphostin treated cells” value with human EGF receptor [1] (by 8 hours of treatment) is listed as “no difference”. Besides, in the experiment with human EGF receptor [1] (tyrphostin every four hours), the “effect of repeated administration of tyrphostin on the increased β-gal activity” value is reported as “did not further prolong the increased β-gal activity”.

For the molecule EGF: mouse salivary gland EGF (Sigma), the “time at which dimerization peaked” value with human EGF receptor [2] (100 ng/ml EGF for 0 to 24 hours, FIG. 8) is 2 to 4 h. Also, in the experiment with human EGF receptor [2] (100 ng/ml EGF for two hours, FIG. 7E), the “increase in β-gal activity (chimeric receptor dimerization) in selected clone” value was “several-fold increase”. The “shortest EGF treatment at which dimerization could be detected” value with human EGF receptor [2] (100 ng/ml EGF, mean fluorescence, FIG. 7F) was “one”. For the same molecule, the “amount of chimeric receptor on the cell surface (immunofluorescence, FACS)” value with human EGF receptor [2] (100 ng/ml EGF, over the period that dimerization decreased, FIG. 8) is “remained essentially constant”. For the same molecule, the “response (dimerization) to a second EGF treatment” value with human EGF receptor [2] (during the decline in dimerization, EGF still present) is “minimal”.

As to “TGF-α: EGF-like growth factor that binds and activates the EGF receptor”, the “dimerization of chimeric EGF receptor following stimulation with EGF-like growth factor” value (“dimerization … with EGF-like growth factor” below) in the experiment with human EGF receptor [2] is on record as “Dimerization was also observed”.

As to “betacellulin: EGF-like growth factor that binds and activates the EGF receptor”, in the experiment with human EGF receptor [2], the “dimerization … with EGF-like growth factor” value was “Dimerization was also observed”.

In the case of “heparin-binding EGF-like growth factor: EGF-like growth factor that binds and activates the EGF receptor”, the “dimerization … with EGF-like growth factor” value with human EGF receptor [2] is on record as “Dimerization was also observed”.
